{"source": "the supplement of paper PMC11246515", "test": "total protein half-life in vivo (active degradation + dilution); higher = more stable protein", "key": {"[1]": {"conditions": "E. coli NCM3722 delta-clpP delta-lon delta-hslV, growth: N-lim chemostat, doubling time 6 h"}, "[2]": {"conditions": "E. coli NCM3722 delta-clpP, growth: N-lim chemostat, doubling time 6 h"}, "[3]": {"conditions": "E. coli NCM3722 delta-hslV, growth: N-lim chemostat, doubling time 6 h"}, "[4]": {"conditions": "E. coli NCM3722 delta-lon, growth: N-lim chemostat, doubling time 6 h"}, "[5]": {"conditions": "E. coli NCM3722 delta-smpB, growth: N-lim chemostat, doubling time 6 h"}, "[6]": {"conditions": "wild type E. coli NCM3722, growth: C-lim chemostat, doubling time 3 h"}, "[7]": {"conditions": "wild type E. coli NCM3722, growth: C-lim chemostat, doubling time 6 h"}, "[8]": {"conditions": "wild type E. coli NCM3722, growth: C-lim chemostat, doubling time 12 h"}, "[9]": {"conditions": "wild type E. coli NCM3722, growth: N-lim chemostat, doubling time 6 h"}, "[10]": {"conditions": "wild type E. coli NCM3722, growth: N-lim chemostat, doubling time 12 h"}, "[11]": {"conditions": "wild type E. coli NCM3722, growth: P-lim chemostat, doubling time 6 h"}, "[12]": {"conditions": "wild type E. coli NCM3722, growth: P-lim chemostat, doubling time 12 h"}}, "note": "± gives the standard deviation of the averaged measurements.", "data": [{"sequence": "MKILVDENMPYARDLFSRLGEVTAVPGRPIPVAQLADADALMVRSVTKVNESLLAGKPIKFVGTATAGTDHVDEAWLKQAGIGFSAAPGCNAIAVVEYVFSSLLMLAERDGFSLYDRTVGIVGVGNVGRRLQARLEALGIKTLLCDPPRADRGDEGDFRSLDELVQRADILTFHTPLFKDGPYKTLHLADEKLIRSLKPGAILINACRGAVVDNTALLTCLNEGQKLSVVLDVWEGEPELNVELLKKVDIGTSHIAGYTLEGKARGTTQVFEAYSKFIGHEQHVALDTLLPAPEFGRITLHGPLDQPTLKRLVHLVYDVRRDDAPLRKVAGIPGEFDKLRKNYLERREWSSLYVICDDASAASLLCKLGFNAVHHPAR", "values": [{"measurement": "total protein half-life in vivo", "setting": "[1]", "value": "5.83 ± 1.3", "unit": "h"}, {"measurement": "total protein half-life in vivo", "setting": "[2]", "value": "5.47 ± 1.3", "unit": "h"}, {"measurement": "total protein half-life in vivo", "setting": "[3]", "value": "5.17 ± 0.28", "unit": "h"}, {"measurement": "total protein half-life in vivo", "setting": "[4]", "value": "5.42 ± 0.064", "unit": "h"}, {"measurement": "total protein half-life in vivo", "setting": "[5]", "value": "4.62 ± 0.18", "unit": "h"}, {"measurement": "total protein half-life in vivo", "setting": "[6]", "value": "3 ± 0.38", "unit": "h"}, {"measurement": "total protein half-life in vivo", "setting": "[7]", "value": "5.58 ± 0.23", "unit": "h"}, {"measurement": "total protein half-life in vivo", "setting": "[8]", "value": "12.6 ± 3.2", "unit": "h"}, {"measurement": "total protein half-life in vivo", "setting": "[9]", "value": "4.72 ± 0.047", "unit": "h"}, {"measurement": "total protein half-life in vivo", "setting": "[10]", "value": "8.268 ± 0.016", "unit": "h"}, {"measurement": "total protein half-life in vivo", "setting": "[11]", "value": "5.71 ± 0.38", "unit": "h"}, {"measurement": "total protein half-life in vivo", "setting": "[12]", "value": "11.1 ± 0.13", "unit": "h"}]}, {"sequence": "MKILVTGGAGFIGSAVVRHIINNTQDSVVNVDKLTYAGNRESLADVSDSERYVFEHADICDAPAMARIFAQHQPDAVMHLAAESHVDRSITGPAAFIETNIVGTYVLLEAARNYWSALDSDKKNSFRFHHISTDEVYGDLPHPDEVNNTEELPLFTETTAYAPSSPYSASKASSDHLVRAWKRTYGLPTIVTNCSNNYGPYHFPEKLIPLVILNALEGKALPIYGKGDQIRDWLYVEDHARALYTVVTEGKAGETYNIGGHNEKKNIDVVLTICDLLDEIVPKEKSYREQITYVADRPGHDRRYAIDAEKIGRALGWKPQETFESGIRKTVEWYLSNTKWVDNVKSGAYQSWIEQNYEGRQ", "values": [{"measurement": "total protein half-life in vivo", "setting": "[1]", "value": 5.58, "unit": "h"}, {"measurement": "total protein half-life in vivo", "setting": "[3]", "value": 5.31, "unit": "h"}, {"measurement": "total protein half-life in vivo", "setting": "[9]", "value": 5.85, "unit": "h"}, {"measurement": "total protein half-life in vivo", "setting": "[11]", "value": 7.66, "unit": "h"}]}, {"sequence": "MKINQPAVAGTLESGDVMIRIAPLDTQDIDLQINSSVEKQFGDAIRTTILDVLARYNVRGVQLNVDDKGALDCILRARLEALLARASGIPALPWEDCQ", "values": [{"measurement": "total protein half-life in vivo", "setting": "[5]", "value": 1.09, "unit": "h"}]}, {"sequence": "MKIRSLSRFVLASTMFASFTASAVPGLWQQGYGQGNAEYSVTDASGKMFTINCTGNPDQNGIYQHSVFLILAGDKTVSSHDDSTGITVVMDHKQYAIPSTLGWRNGDNAWFSFIMDIRKARQFDVYVNDQKVGSFNPDVRNAQKVLPTLADCTND", "values": [{"measurement": "total protein half-life in vivo", "setting": "[6]", "value": 1.45, "unit": "h"}]}, {"sequence": "MKISRLGEAPDYRFSLANERTFLAWIRTALGFLAAGVGLDQLAPDFATPVIRELLALLLCLFSGGLAMYGYLRWLRNEKAMRLKEDLPYTNSLLIISLILMVVAVIVMGLVLYAG [P0ADM0]", "values": [{"measurement": "total protein half-life in vivo", "setting": "[7]", "value": "5.742 ± 0.053", "unit": "h"}, {"measurement": "total protein half-life in vivo", "setting": "[8]", "value": "> 16", "unit": "h"}, {"measurement": "total protein half-life in vivo", "setting": "[9]", "value": 5.98, "unit": "h"}, {"measurement": "total protein half-life in vivo", "setting": "[11]", "value": 5.91, "unit": "h"}, {"measurement": "total protein half-life in vivo", "setting": "[12]", "value": 5, "unit": "h"}]}, {"sequence": "MKITVLGCGALGQLWLTALCKQGHEVQGWLRVPQPYCSVNLVETDGSIFNESLTANDPDFLATSDLLLVTLKAWQVSDAVKSLASTLPVTTPILLIHNGMGTIEELQNIQQPLLMGTTTHAARRDGNVIIHVANGITHIGPARQQDGDYSYLADILQTVLPDVAWHNNIRAELWRKLAVNCVINPLTAIWNCPNGELRHHPQEIMQICEEVAAVIEREGHHTSAEDLRDYVMQVIDATAENISSMLQDIRALRHTEIDYINGFLLRRARAHGIAVPENTRLFEMVKRKESEYERIGTGLPRPW [P0A9J4]", "values": [{"measurement": "total protein half-life in vivo", "setting": "[4]", "value": 3.4, "unit": "h"}, {"measurement": "total protein half-life in vivo", "setting": "[5]", "value": "3.22 ± 0.64", "unit": "h"}, {"measurement": "total protein half-life in vivo", "setting": "[8]", "value": 4.51, "unit": "h"}, {"measurement": "total protein half-life in vivo", "setting": "[9]", "value": 3.03, "unit": "h"}, {"measurement": "total protein half-life in vivo", "setting": "[11]", "value": "5.73 ± 0.2", "unit": "h"}]}, {"sequence": "MKIVEVKHPLVKHKLGLMREQDISTKRFRELASEVGSLLTYEATADLETEKVTIEGWNGPVEIDQIKGKKITVVPILRAGLGMMDGVLENVPSARISVVGMYRNEETLEPVPYFQKLVSNIDERMALIVDPMLATGGSVIATIDLLKKAGCSSIKVLVLVAAPEGIAALEKAHPDVELYTASIDQGLNEHGYIIPGLGDAGDKIFGTK [P0A8F0]", "values": [{"measurement": "total protein half-life in vivo", "setting": "[1]", "value": "5.6625 ± 0.0038", "unit": "h"}, {"measurement": "total protein half-life in vivo", "setting": "[2]", "value": "5.17 ± 0.33", "unit": "h"}, {"measurement": "total protein half-life in vivo", "setting": "[3]", "value": "5.83 ± 0.94", "unit": "h"}, {"measurement": "total protein half-life in vivo", "setting": "[4]", "value": "5.36 ± 0.61", "unit": "h"}, {"measurement": "total protein half-life in vivo", "setting": "[5]", "value": "5.3 ± 0.15", "unit": "h"}, {"measurement": "total protein half-life in vivo", "setting": "[6]", "value": "3.05 ± 0.29", "unit": "h"}, {"measurement": "total protein half-life in vivo", "setting": "[7]", "value": "5.86 ± 0.36", "unit": "h"}, {"measurement": "total protein half-life in vivo", "setting": "[8]", "value": "10.9 ± 1.4", "unit": "h"}, {"measurement": "total protein half-life in vivo", "setting": "[9]", "value": "5.71 ± 0.23", "unit": "h"}, {"measurement": "total protein half-life in vivo", "setting": "[10]", "value": "12.1 ± 2.8", "unit": "h"}, {"measurement": "total protein half-life in vivo", "setting": "[11]", "value": "6.55 ± 0.34", "unit": "h"}, {"measurement": "total protein half-life in vivo", "setting": "[12]", "value": "11.3 ± 0.98", "unit": "h"}]}, {"sequence": "MKIVIAPDSFKESLSAEKCCQAIKAGFSTLFPDANYICLPIADGGEGTVDAMVAATGGNIVTLEVCGPMGEKVNAFYGLTGDGKTAVIEMAAASGLMLVAPEKRNPLLASSFGTGELIRHALDNDIRHIILGIGGSATVDGGMGMAQALGVRFLDADGQALAANGGNLARVASIEMDECDPRLANCHIEVACDVDNPLVGARGAAAVFGPQKGATPEMVEELEQGLQNYARVLQQQTEINVCQMAGGGAAGGMGIAAAVFLNADIKPGIEIVLNAVNLAQAVQGAALVITGEGRIDSQTAGGKAPLGVASVAKQFNVPVIGIAGVLGDGVEVVHQYGIDAVFSILPRLAPLAEVLASGETNLFNSARNIACAIKIGQGIKN", "values": [{"measurement": "total protein half-life in vivo", "setting": "[1]", "value": "4.41 ± 0.66", "unit": "h"}, {"measurement": "total protein half-life in vivo", "setting": "[2]", "value": "4.58 ± 0.6", "unit": "h"}, {"measurement": "total protein half-life in vivo", "setting": "[3]", "value": "4.47 ± 0.077", "unit": "h"}, {"measurement": "total protein half-life in vivo", "setting": "[4]", "value": "4.62 ± 0.21", "unit": "h"}, {"measurement": "total protein half-life in vivo", "setting": "[5]", "value": "4.3 ± 0.45", "unit": "h"}, {"measurement": "total protein half-life in vivo", "setting": "[6]", "value": "3.05 ± 0.13", "unit": "h"}, {"measurement": "total protein half-life in vivo", "setting": "[7]", "value": "4.82 ± 0.53", "unit": "h"}, {"measurement": "total protein half-life in vivo", "setting": "[8]", "value": "10.4 ± 1.2", "unit": "h"}, {"measurement": "total protein half-life in vivo", "setting": "[9]", "value": "5.7 ± 1.2", "unit": "h"}, {"measurement": "total protein half-life in vivo", "setting": "[10]", "value": "8.201 ± 0.034", "unit": "h"}, {"measurement": "total protein half-life in vivo", "setting": "[11]", "value": "5.05 ± 0.15", "unit": "h"}, {"measurement": "total protein half-life in vivo", "setting": "[12]", "value": "9.23 ± 0.27", "unit": "h"}]}, {"sequence": "MKKAIAYMRFSSPGQMSGDSLNRQRRLIAEWLKVNSDYYLDTITYEDLGLSAFKGKHAQSGAFSEFLDAIEHGYILPGTTLLVESLDRLSREKVGEAIERLKLILNHGIDVITLCDNTVYNIDSLNEPYSLIKAILIAQRANEESEIKSSRVKLSWKKKRQDALESGTIMTASCPRWLSLDDKRTAFVPDPDRVKTIELIFKLRMERRSLNAIAKYLNDHAVKNFSGKESAWGPSVIEKLLANKALIGICVPSYRARGKGISEIAGYYPRVISDDLFYAVQEIRLAPFGISNSSKNPMLINLLRTVMKCEACGNTMIVHAVSGSLHGYYVCPMRRLHRCDRPSIKRDLVDYNIINELLFNCSKIQPVENKKDANETLELKIIELQMKINNLIVALSVAPEVTAIAEKIRLLDKELRRASVSLKTLKSKGVNSFSDFYAIDLTSKNGRELCRTLAYKTFEKIIINTDNKTCDIYFMNGIVFKHYPLMKVISAQQAISALKYMVDGEIYF", "values": [{"measurement": "total protein half-life in vivo", "setting": "[1]", "value": "> 8", "unit": "h"}, {"measurement": "total protein half-life in vivo", "setting": "[2]", "value": 1.49, "unit": "h"}, {"measurement": "total protein half-life in vivo", "setting": "[6]", "value": 1.41, "unit": "h"}, {"measurement": "total protein half-life in vivo", "setting": "[8]", "value": 1.97, "unit": "h"}, {"measurement": "total protein half-life in vivo", "setting": "[10]", "value": 14, "unit": "h"}]}]}
